Numbered stars: 1 amine (or outer) side, 2 acyl side, 3 side chain; on linkers, the order of the positions; unused ones are H or OH. Bridge positions count the residues as written; N and C are the ends. Square brackets hold non-standard residues; d marks the D form. Ends that are not written are not given here. Phe(2,3-F2) = (2S)-3-(2,3-difluorophenyl)-2-aminopropanoic acid, O=C([C@H](Cc1cccc(F)c1F)N[*:1])[*:2]; X7 = 4‑(3,5-Dimethyl-1,2-oxazol-4-yl)‑L‑phenylalanine, Cc1noc(C)c1-c1ccc(C[C@H](N[*:1])C(=O)[*:2])cc1; His(τ-Bzl) = N[C@@H](Cc1cn(Cc2ccccc2)cn1)C(=O)O; Pro(4-spirocPr) = O=C(O)[C@@H]1CC2(CC2)CN1; Oic = O=C(O)[C@@H]1C[C@@H]2CCCC[C@@H]2N1; tBuAla = CC(C)(C)C[C@H](N)C(=O)O; (3-Me)H = L-3-methylhistidine; Pen = CC(C)(S)[C@H](N)C(=O)O; NMeA = CN[C@@H](C)C(=O)O; Orn = NCCC[C@H](N)C(=O)O; Sar = CNCC(=O)O

T1: recombinant rat MASP1 active protease (amino acids 302-704, C-terminal His Tag) (rat, UniProt Q8CHN8 302-704)
T1 sequence: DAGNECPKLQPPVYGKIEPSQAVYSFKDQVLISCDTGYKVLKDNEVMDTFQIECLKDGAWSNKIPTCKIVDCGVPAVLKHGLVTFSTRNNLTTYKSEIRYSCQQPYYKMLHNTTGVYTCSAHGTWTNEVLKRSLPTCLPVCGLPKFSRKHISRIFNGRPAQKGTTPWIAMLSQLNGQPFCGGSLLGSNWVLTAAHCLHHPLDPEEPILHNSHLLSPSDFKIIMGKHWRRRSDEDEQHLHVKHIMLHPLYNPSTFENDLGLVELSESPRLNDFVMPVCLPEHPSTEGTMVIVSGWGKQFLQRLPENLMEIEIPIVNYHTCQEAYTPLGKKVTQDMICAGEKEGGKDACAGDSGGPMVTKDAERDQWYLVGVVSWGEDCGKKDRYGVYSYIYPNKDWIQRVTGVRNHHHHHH

B1: Example 447: ((N-Me)G)-IC+SRS-((tBu)A)-PPI-(Pen)+IP-((1-Bn)H)-OH (peptide)
peptide: [Sar]ICSRS[tBuAla]PPI[Pen]IP[His(τ-Bzl)]-OH
modifications: disulfide 3-11; N-terminus assumed
SMILES: CC[C@H](C)[C@H](NC(=O)CNC)C(=O)N[C@H]1CSSC(C)(C)[C@@H](C(=O)N[C@H](C(=O)N2CCC[C@H]2C(=O)N[C@@H](Cc2cn(Cc3ccccc3)cn2)C(=O)O)[C@@H](C)CC)NC(=O)[C@H]([C@@H](C)CC)NC(=O)[C@@H]2CCCN2C(=O)[C@@H]2CCCN2C(=O)[C@H](CC(C)(C)C)NC(=O)[C@H](CO)NC(=O)[C@H](CCCNC(=N)N)NC(=O)[C@H](CO)NC1=O
B2: Example 347: IC+SRSLP-(Oic)-I-(Pen)+IPD-OH (peptide)
peptide: ICSRSLP[Oic]I[Pen]IPD-OH
modifications: disulfide 2-10; N-terminus assumed
SMILES: CC[C@H](C)[C@H](N)C(=O)N[C@H]1CSSC(C)(C)[C@@H](C(=O)N[C@H](C(=O)N2CCC[C@H]2C(=O)N[C@@H](CC(=O)O)C(=O)O)[C@@H](C)CC)NC(=O)[C@H]([C@@H](C)CC)NC(=O)[C@@H]2C[C@@H]3CCCC[C@@H]3N2C(=O)[C@@H]2CCCN2C(=O)[C@H](CC(C)C)NC(=O)[C@H](CO)NC(=O)[C@H](CCCNC(=N)N)NC(=O)[C@H](CO)NC1=O
B3: Example 439: ((N-Me)G)-IC+SRS-((tBu)A)-P-((6S)-5-Azaspiro[2.4]heptane-6-carboxylic acid)-I-(Pen)+IP-NH2 (peptide)
peptide: [Sar]ICSRS[tBuAla]P[Pro(4-spirocPr)]I[Pen]IP-NH2
modifications: disulfide 3-11; N-terminus assumed
SMILES: CC[C@H](C)[C@H](NC(=O)CNC)C(=O)N[C@H]1CSSC(C)(C)[C@@H](C(=O)N[C@H](C(=O)N2CCC[C@H]2C(N)=O)[C@@H](C)CC)NC(=O)[C@H]([C@@H](C)CC)NC(=O)[C@@H]2CC3(CC3)CN2C(=O)[C@@H]2CCCN2C(=O)[C@H](CC(C)(C)C)NC(=O)[C@H](CO)NC(=O)[C@H](CCCNC(=N)N)NC(=O)[C@H](CO)NC1=O
B4: Example 381: ((N-Me)G)-(Orn)-(Orn)-(Orn)-IC+SRS-((tBu)A)-PPI-(Pen)+IP-NH2 (peptide)
peptide: [Sar][Orn][Orn][Orn]ICSRS[tBuAla]PPI[Pen]IP-NH2
modifications: disulfide 6-14; N-terminus assumed
SMILES: CC[C@H](C)[C@H](NC(=O)[C@H](CCCN)NC(=O)[C@H](CCCN)NC(=O)[C@H](CCCN)NC(=O)CNC)C(=O)N[C@H]1CSSC(C)(C)[C@@H](C(=O)N[C@H](C(=O)N2CCC[C@H]2C(N)=O)[C@@H](C)CC)NC(=O)[C@H]([C@@H](C)CC)NC(=O)[C@@H]2CCCN2C(=O)[C@@H]2CCCN2C(=O)[C@H](CC(C)(C)C)NC(=O)[C@H](CO)NC(=O)[C@H](CCCNC(=N)N)NC(=O)[C@H](CO)NC1=O
B5: Example 405: ((N-Me)G)-(Orn)-(Orn)-(Orn)-IC+SRSLP-(Oic)-I-(Pen)+IP-NH2 (peptide)
peptide: [Sar][Orn][Orn][Orn]ICSRSLP[Oic]I[Pen]IP-NH2
modifications: disulfide 6-14; N-terminus assumed
SMILES: CC[C@H](C)[C@H](NC(=O)[C@H](CCCN)NC(=O)[C@H](CCCN)NC(=O)[C@H](CCCN)NC(=O)CNC)C(=O)N[C@H]1CSSC(C)(C)[C@@H](C(=O)N[C@H](C(=O)N2CCC[C@H]2C(N)=O)[C@@H](C)CC)NC(=O)[C@H]([C@@H](C)CC)NC(=O)[C@@H]2C[C@@H]3CCCC[C@@H]3N2C(=O)[C@@H]2CCCN2C(=O)[C@H](CC(C)C)NC(=O)[C@H](CO)NC(=O)[C@H](CCCNC(=N)N)NC(=O)[C@H](CO)NC1=O
B6: Example 441: ((N-Me)G)-IC+SRS-((2S)-3-(2,3-difluorophenyl)-2-aminopropanoic acid)-P-(Oic)-I-(Pen)+IP-NH2 (peptide)
peptide: [Sar]ICSRS[Phe(2,3-F2)]P[Oic]I[Pen]IP-NH2
modifications: disulfide 3-11; N-terminus assumed
SMILES: CC[C@H](C)[C@H](NC(=O)CNC)C(=O)N[C@H]1CSSC(C)(C)[C@@H](C(=O)N[C@H](C(=O)N2CCC[C@H]2C(N)=O)[C@@H](C)CC)NC(=O)[C@H]([C@@H](C)CC)NC(=O)[C@@H]2C[C@@H]3CCCC[C@@H]3N2C(=O)[C@@H]2CCCN2C(=O)[C@H](Cc2cccc(F)c2F)NC(=O)[C@H](CO)NC(=O)[C@H](CCCNC(=N)N)NC(=O)[C@H](CO)NC1=O
B7: Example 370: fIC+SRSLP-(Oic)-I-(Pen)+IP-NH2 (peptide)
peptide: [dF]ICSRSLP[Oic]I[Pen]IP-NH2
modifications: disulfide 3-11; N-terminus assumed
SMILES: CC[C@H](C)[C@H](NC(=O)[C@H](N)Cc1ccccc1)C(=O)N[C@H]1CSSC(C)(C)[C@@H](C(=O)N[C@H](C(=O)N2CCC[C@H]2C(N)=O)[C@@H](C)CC)NC(=O)[C@H]([C@@H](C)CC)NC(=O)[C@@H]2C[C@@H]3CCCC[C@@H]3N2C(=O)[C@@H]2CCCN2C(=O)[C@H](CC(C)C)NC(=O)[C@H](CO)NC(=O)[C@H](CCCNC(=N)N)NC(=O)[C@H](CO)NC1=O
B8: Example 360: (4-(3,5-Dimethyl-1,2-oxazol-4-yl)-L-phenylalanine)-IC+SRSLP-(Oic)-I-(Pen)+IP-NH2 (peptide)
peptide: [X7]ICSRSLP[Oic]I[Pen]IP-NH2
modifications: disulfide 3-11; N-terminus assumed
SMILES: CC[C@H](C)[C@H](NC(=O)[C@@H](N)Cc1ccc(-c2c(C)noc2C)cc1)C(=O)N[C@H]1CSSC(C)(C)[C@@H](C(=O)N[C@H](C(=O)N2CCC[C@H]2C(N)=O)[C@@H](C)CC)NC(=O)[C@H]([C@@H](C)CC)NC(=O)[C@@H]2C[C@@H]3CCCC[C@@H]3N2C(=O)[C@@H]2CCCN2C(=O)[C@H](CC(C)C)NC(=O)[C@H](CO)NC(=O)[C@H](CCCNC(=N)N)NC(=O)[C@H](CO)NC1=O
B9: Example 323: GIC+SRSLP-(Oic)-IC+IPD-OH (peptide)
peptide: GICSRSLP[Oic]ICIPD-OH
modifications: disulfide 3-11; N-terminus assumed
SMILES: CC[C@H](C)[C@H](NC(=O)CN)C(=O)N[C@H]1CSSC[C@@H](C(=O)N[C@H](C(=O)N2CCC[C@H]2C(=O)N[C@@H](CC(=O)O)C(=O)O)[C@@H](C)CC)NC(=O)[C@H]([C@@H](C)CC)NC(=O)[C@@H]2C[C@@H]3CCCC[C@@H]3N2C(=O)[C@@H]2CCCN2C(=O)[C@H](CC(C)C)NC(=O)[C@H](CO)NC(=O)[C@H](CCCNC(=N)N)NC(=O)[C@H](CO)NC1=O
B10: Example 440: ((N-Me)G)-IC+SRS-((2S)-3-(2,3-difluorophenyl)-2-aminopropanoic acid)-PPI-(Pen)+IP-NH2 (peptide)
peptide: [Sar]ICSRS[Phe(2,3-F2)]PPI[Pen]IP-NH2
modifications: disulfide 3-11; N-terminus assumed
SMILES: CC[C@H](C)[C@H](NC(=O)CNC)C(=O)N[C@H]1CSSC(C)(C)[C@@H](C(=O)N[C@H](C(=O)N2CCC[C@H]2C(N)=O)[C@@H](C)CC)NC(=O)[C@H]([C@@H](C)CC)NC(=O)[C@@H]2CCCN2C(=O)[C@@H]2CCCN2C(=O)[C@H](Cc2cccc(F)c2F)NC(=O)[C@H](CO)NC(=O)[C@H](CCCNC(=N)N)NC(=O)[C@H](CO)NC1=O

recombinant rat MASP2 active protease (amino acids 296-685, C-terminal His Tag), sequence (Q9JJS8 other isoform, or with tags, fused parts or gaps limits assumed): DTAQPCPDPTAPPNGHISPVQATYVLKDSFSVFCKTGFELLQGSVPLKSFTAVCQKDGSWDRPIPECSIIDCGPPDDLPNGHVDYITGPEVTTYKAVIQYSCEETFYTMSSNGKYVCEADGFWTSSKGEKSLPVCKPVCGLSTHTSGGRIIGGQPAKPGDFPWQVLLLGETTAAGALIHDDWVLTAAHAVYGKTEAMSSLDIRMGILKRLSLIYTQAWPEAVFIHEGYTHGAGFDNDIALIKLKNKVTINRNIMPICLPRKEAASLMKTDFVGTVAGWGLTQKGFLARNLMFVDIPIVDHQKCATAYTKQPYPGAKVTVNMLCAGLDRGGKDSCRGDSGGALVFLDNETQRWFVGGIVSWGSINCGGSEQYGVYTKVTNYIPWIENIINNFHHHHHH

The first assay addresses recombinant rat MASP2 active protease (amino acids 296-685, C-terminal His Tag) (rat, UniProt Q9JJS8 296-685). Briefly: cell-based or functional assay.
Consider B1, for which the “rat MASP2 IC50” value amounted to 35 nM.
On to B2, for which the “rat MASP2 IC50” value was found to be 1000 nM.
Same read-out and setting: next, B3: 9.4 nM; [Sar]ICSRSLP[Oic]I[Pen]IP[5‑Azaspiro(2.4)heptane‑1‑carboxylic acid]-OH (disulfide 3-11) [Example 438: ((N-Me)G)-IC+SRSLP-(Oic)-I-(Pen)+IP-((5-Azaspiro[2.4]heptane-1-carboxylic acid)-OH]: 22 nM; B4: 470 nM.
The same measure, in the same setting: then B5, with 510 nM; and [Sar]ICSRSLP[Oic]I[Pen]IPP[(2S)‑3‑(Triazol-1-yl)‑2‑(amino)propanoic acid]-NH2 (disulfide 3-11), with 31 nM; and [Sar]ICSRSLP[Oic]I[Pen]I[5‑Azaspiro(2.4)heptane‑1‑carboxylic acid]-OH (disulfide 3-11) [Example 419: ((N-Me)G)-IC+SRSLP-(Oic)-I-(Pen)+I-((5-Azaspiro[2.4]heptane-1-carboxylic acid)-OH], with 42 nM.
On the same count and under the same terms, next, [NMeA]ICSRS[tBuAla]P[(3R,6R)‑1,1‑Difluoro‑5‑azaspiro(2.4)heptane‑6‑carboxylic acid (enantiomer 1)]I[Pen]IP-NH2 (disulfide 3-11): 4.7 nM; [(3-Me)H]ICSRSLP[Oic]I[Pen]IP-NH2 (disulfide 3-11) [Example 444: ((3-Me)H)-IC+SRSLP-(Oic)-I-(Pen)+IP-NH2]: 9.8 nM; B6: 120 nM.
Turning to [Sar]ICSRSLP[Oic]I[Pen]IP[(2S)‑3‑(Triazol-1-yl)‑2‑(amino)propanoic acid]-NH2 (disulfide 3-11) [Example 437: ((N-Me)G)-IC+SRSLP-(Oic)-I-(Pen)+IP-((2S)-3-(Triazol-1-yl)-2-(amino)propanoic acid)-NH2], the “rat MASP2 IC50” value worked out at 40 nM.
On to B7, for which the “rat MASP2 IC50” value was 170 nM.
Still for that read-out and setting: then B8, with 73 nM.
In the case of [NMeA]ICSRS[tBuAla]P[(3R,6R)‑1,1‑Difluoro‑5‑azaspiro(2.4)heptane‑6‑carboxylic acid (enantiomer 2)]I[Pen]IP-NH2 (disulfide 3-11), the “rat MASP2 IC50” value amounted to 94 nM.
On to B9, for which the “rat MASP2 IC50” value came out at 60.1 nM.
Consider B10, for which the “rat MASP2 IC50” value is 14 nM.

Another assay addresses T1, recombinant rat MASP1 active protease …. Briefly: cell-based or functional assay.
As to B1, the “rat MASP1 IC50” value was 21 nM.
Still for that read-out and setting: then B2, with 1000 nM; and B3, with 36 nM; and [Sar]ICSRSLP[Oic]I[Pen]IP[5‑Azaspiro(2.4)heptane‑1‑carboxylic acid]-OH (disulfide 3-11) [Example 438: ((N-Me)G)-IC+SRSLP-(Oic)-I-(Pen)+IP-((5-Azaspiro[2.4]heptane-1-carboxylic acid)-OH], with 31 nM.
Still for that read-out and setting: then B4, with 600 nM.
Still for that read-out and setting: next, B5: 650 nM.
For the molecule [Sar]ICSRSLP[Oic]I[Pen]IPP[(2S)‑3‑(Triazol-1-yl)‑2‑(amino)propanoic acid]-NH2 (disulfide 3-11), the “rat MASP1 IC50” value was 39 nM.
The same measure, in the same setting: then [Sar]ICSRSLP[Oic]I[Pen]I[5‑Azaspiro(2.4)heptane‑1‑carboxylic acid]-OH (disulfide 3-11) [Example 419: ((N-Me)G)-IC+SRSLP-(Oic)-I-(Pen)+I-((5-Azaspiro[2.4]heptane-1-carboxylic acid)-OH], with 70 nM; and [NMeA]ICSRS[tBuAla]P[(3R,6R)‑1,1‑Difluoro‑5‑azaspiro(2.4)heptane‑6‑carboxylic acid (enantiomer 1)]I[Pen]IP-NH2 (disulfide 3-11), with 29 nM.
Same read-out and setting: then [(3-Me)H]ICSRSLP[Oic]I[Pen]IP-NH2 (disulfide 3-11) [Example 444: ((3-Me)H)-IC+SRSLP-(Oic)-I-(Pen)+IP-NH2], with 130 nM; and B6, with 410 nM; and [Sar]ICSRSLP[Oic]I[Pen]IP[(2S)‑3‑(Triazol-1-yl)‑2‑(amino)propanoic acid]-NH2 (disulfide 3-11) [Example 437: ((N-Me)G)-IC+SRSLP-(Oic)-I-(Pen)+IP-((2S)-3-(Triazol-1-yl)-2-(amino)propanoic acid)-NH2], with 46 nM.
On the same count and under the same terms, next, B7: 235 nM; B8: 120 nM; [NMeA]ICSRS[tBuAla]P[(3R,6R)‑1,1‑Difluoro‑5‑azaspiro(2.4)heptane‑6‑carboxylic acid (enantiomer 2)]I[Pen]IP-NH2 (disulfide 3-11): 150 nM.
Turning to B9, the “rat MASP1 IC50” value was found to be 51.8 nM.
The same measure, in the same setting: next, B10: 610 nM.

For the origin of these results see patent US20210246166A1 (Bayer, published 2021).
